This series can be described thus: yeast display, Sf9 membrane polyspecificity reagent, FACS + sequencing; frameworks hold sequencing errors. Put shortly:
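A synthetic nanobody library was expressed on Saccharomyces cerevisiae BJ5465 by galactose induction for 36–48 hours. The library was stained for 1 hour at 4 °C with 10% biotinylated, detergent-solubilized Sf9 membrane reagent and enriched with streptavidin microbeads before FACS. Low and high (top ~1%) gates were set on anti-HA fluorescence for expression and streptavidin fluorescence for reagent binding, and each polyreactivity label reflects the gate of origin.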
Regarding “QVQLVESGGGLVQAGGSLRLSCAASGIIFAGYAMGWYRQAPGKERELVADITSSGTSTYYADSVKGRFTISRDNAKNTVYLQMNSLKPEDTAVYYCAADDPRKNFTILDYLYDYWGQGTQVTVSS”, the “polyreactivity (PSR sort gate)” value is “low polyreactivity”.

Regarding “QVQLVESGGGLVQAGGSLRLSCAASGIIFAIYAMGWYRQAPGKERELVAAITWRGGSTYYADSVKGRFTISRDNAKNTVYLQMNSLKPEDTAVYYCAAVTKSLYGYDYWGQGSQVTVSS”, the “polyreactivity (PSR sort gate)” value is listed as “low polyreactivity”.

Consider “QVQLVESGGGLVQAGGSLRLSCAASGIIFAKYAMGWYRQPPGKERELVASISRPGGSTYYADSVKGRFTISRDNAKNTVYLQMNSLKPEDTAVYDCNAPGLRDYDAEYDYWGQGTQVTVSS”, for which the “polyreactivity (PSR sort gate)” value is listed as “high polyreactivity”.

As for “QVQLVESGGGLVQAGGSLRLSCAASGIIFANNAMGWYRQAPGKERELVARISRSGGGTYYADSVKGRFTISRDNAKNTVYLQMNSLKPEDTAVYYCNAESSYYYGTAAYEYWGQGTQVTVSS”, the “polyreactivity (PSR sort gate)” value was “low polyreactivity”.

Consider “QVQLVESGGGLVQAGGSLRLSCAASGIIFANYAMGWYRQAPGKERELVAAITYSGGGTYYADSVKGRFTISRDNAKNTVYLQMNSLKPEDTAVYYSAAEYFYRWYYFPYGYWGQGTQVTVSS”, for which the “polyreactivity (PSR sort gate)” value is “high polyreactivity”.

For the sequence “QVQLVESGGGLVQAGGSLRLSCAASGIIFARNAMGWYRQAPGKERELVATISRNGGRTYYADSVKGRFTISRDNAKNTVYLQMNSLKPEDTAVYYCAAGFYLRAVWMDYWGQGTQVTVSS”, the “polyreactivity (PSR sort gate)” value is given as “high polyreactivity”.

Take “QVQLVESGGGLVQAGGSLRLSCAASGIIFASNAMGWYRQAPGKERELVAAISGSGGRTYYADSVKGRFTISRDTAKNTVYLQMNSLKPEDTAVYYCAAARANNYDYWGQGTQVTVSS”: the “polyreactivity (PSR sort gate)” value is recorded as “high polyreactivity”.

Consider “QVQLVESGGGLVQAGGSLRLSCAASGIIFATYAMGWYRQAPGKERELVASISTGDSTNYADSVKGRFTISRDNAKNTVYLQMNSLKPEDTAVYYCNADSYPYYVYGSNDYWGQGTQVTVSS”, for which the “polyreactivity (PSR sort gate)” value is “low polyreactivity”.

Turning to “QVQLVESGGGLVQAGGSLRLSCAASGIIFAWYAMGWYRQAPGKERELVAAISGRGGRTYYADSVKGRFTISRDNAKNTVYLQMNSLKPEDTPVYYCNKDKSVIYDYWGQGTQVTVSS”, the “polyreactivity (PSR sort gate)” value is “high polyreactivity”.

With “QVQLVESGGGLVQAGGSLRLSCAASGIIFAYAMGWYRQAPGKERELVAAISGRDGSTYYADSVKGRFTISRDNAKNTVYLQMNSLKPEDTAVYYCAKRISYLPVEMDYWGQGTQVTVSS”, the “polyreactivity (PSR sort gate)” value was “low polyreactivity”.

With “QVQLVESGGGLVQAGGSLRLSCAASGIIFAYNAMGWYRQAPGKERELVAAISVIGGTTYYADSVKGRFTISRDNAKNTVYLQMNSLKPEDTAVYYCAVDSVQYGGGYERLHELYYWGQGTQVTVSS”, the “polyreactivity (PSR sort gate)” value is listed as “low polyreactivity”.

Regarding “QVQLVESGGGLVQAGGSLRLSCAASGIIFAYNTMGWYRQAPGKARELVAAITYRGGRTYYADSVKGRFRISRDNAKNTFYLQMNSLKPEDTAVYYCAAGRGVYSYGYNYWGHGTQVTVSS”, the “polyreactivity (PSR sort gate)” value is recorded as “high polyreactivity”.

In the case of “QVQLVESGGGLVQAGGSLRLSCAASGIIFAYYAMGRSRQAPGKEMEFVAGISCSGSSTNYADSVKGRFTISRDNAKNTVYFQMNSLKPEDTAVYYCAARSRRYHRTKPKYDYWGQGTQVTVSS”, the “polyreactivity (PSR sort gate)” value is on record as “high polyreactivity”.

On to “QVQLVESGGGLVQAGGSLRLSCAASGIIFAYYAMGWYRQAPGKERELVASISSGGTTKYADSVKGRFTISRDNAKNTVYLQMNSLKPEDTAVYYCAAEHRWRSWDMDYWGQGTQVTVSS”, for which the “polyreactivity (PSR sort gate)” value is recorded as “low polyreactivity”.

As to “QVQLVESGGGLVQAGGSLRLSCAASGIIFDDYAMGWYRQAPGKERELVAAITTSGGRTYYADSVKGRFTISRDNAKNTVYLQMNSLKPEDTAVYYCATRRGRAYRWMNYWGQGTQVTVSS”, the “polyreactivity (PSR sort gate)” value is “high polyreactivity”.

As to “QVQLVESGGGLVQAGGSLRLSCAASGIIFDEYAMGWYIQAPGKERELVAAITRDGGTNYADSVKGRFTISRDNAKNTVYLQMNSLKPEDTAVYYCAKRAYFYYGRYDYWGQGTQVTVSS”, the “polyreactivity (PSR sort gate)” value is “low polyreactivity”.

As for “QVQLVESGGGLVQAGGSLRLSCAASGIIFDFYAMGWYRPAPGKERELVAAITSSGGSTYYADSVKGRFTISRDNAKNTVYLQMNSLKPEDTAVYYCAAEYTIYGTDQRYNYWGQGTQVTVSS”, the “polyreactivity (PSR sort gate)” value is given as “low polyreactivity”.

Turning to “QVQLVESGGGLVQAGGSLRLSCAASGIIFDPYAMGWYRQAPGKERELVADIDNASSTYYADSVKGRFTISRDNAKNTVYLQMNSLKPEDTAVYYCAADLWYGGEYWGQGTQVTVSS”, the “polyreactivity (PSR sort gate)” value is “low polyreactivity”.

Consider “QVQLVESGGGLVQAGGSLRLSCAASGIIFDQNVMGWYRQAPGKERELVAAIRQTGGSTYYADSVKGRFTISRDNAKNTVYLQMNSLKPEDTAVYYCNAKPPGWFWGGFSYNRYYYWGQGTQVTVSS”, for which the “polyreactivity (PSR sort gate)” value was “low polyreactivity”.

Regarding “QVQLVESGGGLVQAGGSLRLSCAASGIIFDTNAMGWYRPAPGKERELVAAITRSGGGTYYADSVKGRFSISRDNAKNTVYLQMNSLKPDDTAVYYCAARRQRDRYGYWGQGTQLTVSS”, the “polyreactivity (PSR sort gate)” value is given as “high polyreactivity”.

In the case of “QVQLVESGGGLVQAGGSLRLSCAASGIIFDWYDMGWYRQAPGKERELVATITSDDGTNYADSVKGRFTIARDNAKNTVYFQLNSLKPEDTAVYYCAKRLIPSLPILQKMDYWGQGTQVTVSS”, the “polyreactivity (PSR sort gate)” value is given as “low polyreactivity”.

“QVQLVESGGGLVQAGGSLRLSCAASGIIFDYYAMGWYRQAPGKERELVASISWSGGGTYYADSVKGRFTISRDNAKNTVYLEMNSLKPEDTAVYYCAADGSTVNAPRWSDPYDYWGQGTQVTVSS”: the “polyreactivity (PSR sort gate)” value is reported as “low polyreactivity”.

In the case of “QVQLVESGGGLVQAGGSLRLSCAASGIIFEFYAMGWYRQAPGKEREFVAAISKNGGRTYYADSVKGRFTISRDNAKTSVYLQLNSLKPEDTAVYYCDARYRPQANKYYYWGQGTQVTVSS”, the “polyreactivity (PSR sort gate)” value is on record as “high polyreactivity”.

Regarding “QVQLVESGGGLVQAGGSLRLSCAASGIIFENYAMGWYRQAPGKERELVAAISAGGAITYYADSVKGRFTISRDNAKNTVYLQMNSLKPEDTAVYYCNAKSYRHLLYIPYKYNYWGQGTQVTVSS”, the “polyreactivity (PSR sort gate)” value is reported as “high polyreactivity”.

With “QVQLVESGGGLVQAGGSLRLSCAASGIIFEPNAMGWYRQAPGKERELVAAIDSGGITYYADSVKGRFTISRDNAKNTVYLQMNSLKPEDTAVYYCAAEAVVVTKYRYWTYGLYDYWGQGTQVTVSS”, the “polyreactivity (PSR sort gate)” value was “high polyreactivity”.

For “QVQLVESGGGLVQAGGSLRLSCAASGIIFEPYAMGWYRQAPGKERELVASIRWSDGSTFYADSVKGRFTISRDNAKNTVYLQMNSLKPEDTAVYYCNAVYEHRRVGWVTIDYGYWGQGSQVTVSS”, the “polyreactivity (PSR sort gate)” value is recorded as “low polyreactivity”.

As to “QVQLVESGGGLVQAGGSLRLSCAASGIIFESYSMGWYRQAPGKERELVAAISWDGGSTYYADSVKGRFTISRDNAKNTVYLQMNSLKPEDTAVYYCAAESYGIYDGYDYWGQGTQVTVSS”, the “polyreactivity (PSR sort gate)” value is on record as “high polyreactivity”.

As for “QVQLVESGGGLVQAGGSLRLSCAASGIIFEYYAMGWYRQAPGKEWELVAAITDDGVVTYYGDSVKGRFTISRDNAKNTVYLQMNSLKPEDTAVYYCAAESYWTATYTYDYWGQGTQVTVSS”, the “polyreactivity (PSR sort gate)” value is “high polyreactivity”.

For the sequence “QVQLVESGGGLVQAGGSLRLSCAASGIIFFLYAMGWYRQAPGKERELVAAISSGGSTYYADSVKGRFTISRDNAKNTVYLQMNSLKPEDTAVYYCAVVGYASRYEKYYYWGQGTQVTVSS”, the “polyreactivity (PSR sort gate)” value is recorded as “high polyreactivity”.

With “QVQLVESGGGLVQAGGSLRLSCAASGIIFFRYAMGWYRQAPGKEREWVAGISGSGGSTYYADSVKGRFTMSRDNAKNTVYLQMNSLKPEDTAVYYCAKRYYRPVPGGYYWGQGTQVTVSS”, the “polyreactivity (PSR sort gate)” value is “high polyreactivity”.

For the origin of these results see the nanobody polyreactivity screen of Harvey et al. (2022).
